What all share (test): EMSA; 25 mM Tris pH 8.0, 100 mM KCl, 1.5 mM MgCl2, 0.2 mM EGTA, 0.05% Nonidet P-40, 1 mM DTT, 5% glycerol, 50 ug/ml heparin; 30 C 30 min, then ice 10 min; 1 nM RNA; 6% native PAGE in cold room
Data set [1] has as its target T1, YBX1 (UniProt P67809 1-324). The note with it: protein: recombinant; tags: His6-MBP (N-terminal vector tag); label: 5'-IRD800CWN.
For data set [2], the target named is T1, YBX1. The note with it: protein: recombinant; tags: His6-MBP (N-terminal vector tag); label: 5'-IRD800CWN. The source holds these as a separate data set.
In data set [3] the target is YBX1(F85A) (UniProt P67809 1-324, F85A). The note with it: protein: recombinant; tags: His6-MBP; label: 5'-IRD800CWN.
Data set [4] deals with YBAP1 (UniProt Q07021 74-282). The note with it: protein: recombinant; tags: His6-MBP; chain copies: 3; label: 5'-IRD800CWN.
Data set [5] has as its target T1, YBX1. The note with it: protein: recombinant; tags: His6-MBP (N-terminal vector tag); label: 5'-IRD800CWN. This is another data set of the same source.

From PMC10403255, “Two RNA-binding proteins mediate the sorting of miR223 from mitochondria into exosomes” come the findings set out here.

T1 sequence (P67809 whole entry): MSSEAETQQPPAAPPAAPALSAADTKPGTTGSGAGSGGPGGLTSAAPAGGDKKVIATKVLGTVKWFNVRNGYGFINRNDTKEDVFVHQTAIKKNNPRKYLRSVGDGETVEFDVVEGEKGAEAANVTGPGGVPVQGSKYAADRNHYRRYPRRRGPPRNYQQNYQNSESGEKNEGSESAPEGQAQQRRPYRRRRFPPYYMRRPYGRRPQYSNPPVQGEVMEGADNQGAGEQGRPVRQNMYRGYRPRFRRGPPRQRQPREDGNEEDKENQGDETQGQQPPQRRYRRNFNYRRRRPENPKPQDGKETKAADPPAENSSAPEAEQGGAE
Chain of YBAP1 (Q07021 74-282): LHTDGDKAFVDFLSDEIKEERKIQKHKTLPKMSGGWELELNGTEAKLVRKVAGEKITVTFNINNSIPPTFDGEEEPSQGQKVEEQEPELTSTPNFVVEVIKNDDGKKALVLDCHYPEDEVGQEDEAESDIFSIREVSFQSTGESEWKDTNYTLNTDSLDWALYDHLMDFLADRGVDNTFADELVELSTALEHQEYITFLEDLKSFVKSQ
Chain of YBX1(F85A) (P67809 whole entry F85A): as the sequence (P67809 whole entry) above, with F85A counted along it

In the case of UGUCAGUUUUGAUAUAUUAGGU (ssRNA) [miR190sort], in data set [1], the binding signal is roughly 8 fold stronger than miR190.

Take UGUCAGUUUGUCAAAUACCCCA (ssRNA) [miR223 (hsa-miR-223-3p)]: the Kd in data set [2] was 4.2 nM. Further, the binding result was “no binding” in data set [3] and “binds” in data set [4].

UGAGACAUUGUCAAAUACCCCA (ssRNA) [miR223mut]: in data set [1], the binding signal was roughly 27 fold weaker than miR223.

For UGAUAUGUUUGAUAUAUUAGGU (ssRNA) [miR190 (hsa-miR-190-5p)], in data set [4], the binding result was “no binding”. Also, in data set [5], the binding signal was roughly 140 fold weaker than miR223.

Usually Kd stands for the equilibrium constant for the complex coming apart.
